For orientation: Kd means the equilibrium constant for the complex coming apart.

From patent publication US20230203170A1 (DRAGONBOAT BIOPHARMACEUTICAL SHANGHAI, published 2023) come the findings set out here.

B1: TY21428 (antibody, human IgG4, V domains shown)
VH: EVQLVESGGGLVQPGGSLRLSCAASGFTFSNYGIHWVRQAPGKGLEWVSVISGYGGSTYYADSVKGRFTISRDNSKNTLYLQLNSLRAEDTAVYYCARRGLTSTYFDYWGQGTLVTVSS
VL: DIQLTQSPSSLSASVGDRVTITCRASQSVGSWLAWYQQKPGKAPKLLIYDASNLETGVPSRFSGSGSGTDFTLTISSLQPEDFATYYCQQSYPIPPTFGQGTKVEIK
notes: Human IgG4 isotype with S241P mutation
B2: TY21373 (antibody, human IgG4, V domains shown)
VH: EVQLVESGGGLVQPGGSLRLSCAASGYSISSGYYWGWIRQAPGKGLEWVSSISGYGSSTYYADSVKGRFTISRDNSKNTLYLQLNSLRAEDTAVYYCARGAYGYFDYWGQGTLVTVSS
VL: DIQLTQSPSSLSASVGDRVTITCPASSSVSYIHWYQQKPGKAPKLLIYDASNLETGVPSRFSGSGSGTDFTLTISSLQPEDFATYYCQQYYPWPWTFGQGTKVEIK
notes: as for B1
B3: TY21429 (antibody, human IgG4, V domains shown)
VH: EVQLVESGGGLVQPGGSLRLSCAASGYTFSNYAIHWVRQAPGKGLEWVSAISGTGSSTYYADSVKGRFTISRDNSKNTLYLQLNSLRAEDTAVYYCARHSHSRYAFDYWGQGTLVTVSS
VL: B2 VL with P24R, S27H, S28V, V29R, S30T, Y31A, I32V, H33A
notes: as for B1
B4: TY21375 (antibody, human IgG4, V domains shown)
VH: B1 VH with N31D, G33A, R99S, L101G, T102G, S103G, T104Y
VL: DIQLTQSPSSLSASVGDRVTITCRASQGIRSYLAWYQQKPGKAPKLLIYAASSLQSGVPSRFSGSGSGTDFTLTISSLQPEDFATYYCQQSYHWPLTFGQGTKVEIK
notes: as for B1
B5: TAC2205 (antibody, human IgG4, V domains shown)
VH: QVQLVQSGAEVKKPGSSVKVSCKASGYTFTDNYMIWVRQAPGQGLEWMGDINPYNGGTTFNQKFKGRVTITADKSTSTAYMELSSLRSEDTAVYYCARESPYFSNLYVMDYWGQGTLVTVSS
VL: EIVLTQSPATLSLSPGERATLSCKASQSVDYDGDNYMNWYQQKPGQAPRLLIYAASNLESGIPARFSGSGSGTDFTLTISSLEPEDFAVYYCHLSNEDLSTFGGGTKVEIK
B6: TY21371 (antibody, V domains shown)
VH: EVQLVESGGGLVQPGGSLRLSCAASGFTFSGYAIHWVRQAPGKGLEWVSVISGYGSSTYYADSVKGRFTISRDNSKNTLYLQLNSLRAEDTAVYYCARDPGVGGFDVWGQGTLVTVSS
VL: DIQLTQSPSSLSASVGDRVTITCRASQSVRRRFLAWYQQKPGKAPKLLIYDASSLESGVPSRFSGSGSGTDFTLTISSLQPEDFATYYCQQYYPIPRTFGQGTKVEIK
notes: Human IgG4 isotype with S241P mutation (Uniprot P01861); Its IgG1 format is called TY22179 (used only in PK/PD)
B7: TY21372 (antibody, human IgG4, V domains shown)
VH: B6 VH with F27Y, G31D, S57T, D99A, P100S, G101S, V102Y, V107Y
VL: DIQLTQSPSSLSASVGDRVTITCRASQDVSTAVAWYQQKPGKAPKLLIYDASNRATGIPSRFSGSGSGTDFTLTISSLQPEDFATYYCQQYYPWPWTFGQGTKVEIK
notes: as for B1
B8: TY21433 (antibody, human IgG4, V domains shown)
VH: B6 VH with G31N, S57T, D99S, P100T, G101V, V102A, G103T, G104P, D106A, V107Y
VL: B7 VL with R24K, S30R, D50A, N53T, R54L, A55Q, T56S, I58V, Y91S
notes: as for B1
B9: TAC2188 (antibody, human IgG4, V domains shown)
VH: QVQLVQSGAEVKKPGASVKVSCKASGYTFTSYDISWVRQAPGQGLEWMGVIWTDGGTNYAQKLQGRVTMTTDTSTSTAYMELRSLRSDDTAVYYCARDQRLYFDVWGQGTTVTVSS
VL: DIQMTQSPSSLSASVGDRVTITCRASEDVNTYVSWYQQKPGKAPKLLIYAASNRYTGVPSRFSGSGSGTDFTLTISSLQPEDFATYYCQQSFSYPTFGQGTKLEIK

Residue numbers refer to the chain shown, from its start. Names and notes keep the numbering of the source.

T4 sequence (A0A2K5WG90 entry or part of it limits assumed, form in doubt): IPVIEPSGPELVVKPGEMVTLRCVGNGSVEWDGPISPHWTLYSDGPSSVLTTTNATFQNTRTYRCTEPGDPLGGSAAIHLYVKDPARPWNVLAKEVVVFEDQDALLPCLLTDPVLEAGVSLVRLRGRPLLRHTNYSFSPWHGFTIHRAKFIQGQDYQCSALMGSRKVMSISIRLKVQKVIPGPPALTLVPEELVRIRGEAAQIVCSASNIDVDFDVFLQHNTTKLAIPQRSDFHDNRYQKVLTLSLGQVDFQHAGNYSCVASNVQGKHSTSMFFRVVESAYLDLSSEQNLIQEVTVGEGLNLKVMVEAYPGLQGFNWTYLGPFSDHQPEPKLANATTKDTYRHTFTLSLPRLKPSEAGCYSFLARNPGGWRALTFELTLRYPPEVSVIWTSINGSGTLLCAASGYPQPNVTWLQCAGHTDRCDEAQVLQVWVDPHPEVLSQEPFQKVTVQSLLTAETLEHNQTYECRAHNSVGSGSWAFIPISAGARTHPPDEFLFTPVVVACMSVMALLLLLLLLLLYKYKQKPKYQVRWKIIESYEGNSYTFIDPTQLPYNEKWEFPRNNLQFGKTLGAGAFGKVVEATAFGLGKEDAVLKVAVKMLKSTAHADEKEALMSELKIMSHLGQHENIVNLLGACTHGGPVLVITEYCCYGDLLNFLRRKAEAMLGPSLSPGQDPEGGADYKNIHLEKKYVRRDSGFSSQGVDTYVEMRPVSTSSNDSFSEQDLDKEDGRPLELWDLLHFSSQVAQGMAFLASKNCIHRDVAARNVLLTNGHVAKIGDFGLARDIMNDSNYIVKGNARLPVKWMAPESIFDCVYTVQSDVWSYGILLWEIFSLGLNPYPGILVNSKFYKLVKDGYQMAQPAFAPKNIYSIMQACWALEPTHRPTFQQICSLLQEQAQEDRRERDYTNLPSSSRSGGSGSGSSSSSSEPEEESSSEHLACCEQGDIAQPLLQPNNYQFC

The first test deals with T1, full-length human CSF-1R expressed on cells (human, UniProt P07333 20-972).
T1 construct: whole, on cells
In words: flow cytometry on HEK293F cells transiently expressing full-length human CSF-1R (IRES-EGFP vector), IgG at 100 nM, Alexa Fluor 647 anti-human Fc detection [Conti.]. Here is the method: (§1) The specificities of the antibodies were also assessed against human, monkey and mouse CSF-1R that are transiently expressed on the surface of HEK293F cells (FIG. 1). Briefly, HEK293F cells were transfected with a plasmid expressing full-length human, monkey (RefSeq ID XP_015307616) or mouse (RefSeq ID NP_001032948) CSF-1R from a bicistronic IRES vector. EGFP was used to identify the transfected cells. After 40 hrs, the transfected cells were harvested and then washed once with 1% PBSA buffer (1% (w/v) BSA in 1×PBS). Cells were then incubated with various IgGs (each at 100 nM) for 1 hr at room temperature, washed once with pre-chilled 1% PBSA buffer, and incubated with Alexa Fluor® 647 conjugated mouse anti-human Fc antibodies for 30 min on ice. The cells were washed once prior to analysis by flow cytometry (Beckman® CytoFlex).
Consider B1, for which the “percent of cells in the upper right quadrant (APC Ab binding positive, FITC Ag display positive)” value was found to be 41.3%.

The target of another test is T2, human CSF1R-His (Acrobiosystem, CSR-H5228) (human, UniProt P07333 20-512, limits assumed).
T2 construct: Bought protein; The catalogue number is printed only for the SPR assay; also called human CSF-1R protein; not shown: His tag
In words: SPR Biacore T200; IgG captured by anti-human Fc, CSF1R-His as analyte, 1:1 fit. From the text: The specific binding affinity and kinetics of antibodies against human CSF-1R protein were examined by surface plasmon resonance (SPR) analysis using a Biacore™ T200 instrument (GE, USA) according to the manufacturer’s guidelines. Anti-Human IgG (Fc) antibody (Sigma, I2136) was immobilized on CM5 chips according to the instructions of Amine Coupling kit (GE Biacore #BR-1000-50). The immobilized Anti-Human IgG (Fc) antibody was used to capture the antibodies. […] The running buffer used was 0.01 M HEPES, 0.15 M NaCl, 3 mM EDTA, 0.05% (v/v) surfactant P20, pH 7.4. Corresponding controls were conducted in each case using a blank flow cell with no protein captured for “background” subtraction. The association and dissociation curves were fitted to a 1:1 Langmuir binding model using Biacore T200 Evaluation Software (GE, USA) according to the manufacturer’s guidelines.
In the case of B2, the dissociation constant Kd came to 23.6 nM.

In turn, B3 gave a dissociation constant Kd of 3.18 nM.

Molecule B4 displayed a Kd of 35.5 nM.

Take B1: binding was put at a Kd of 9.86 nM.

As to B5, binding was characterised by a dissociation constant (Kd) of 0.67 nM.

B6 had an equilibrium dissociation constant (Kd) of 0.6 nM.

B7 showed a Kd of 1.61 nM.

Molecule B8 had a Kd of 3.51 nM.

The target of a further test is T3, full-length mouse CSF-1R (RefSeq ID NP_001032948) expressed on HEK293F cells (mouse, UniProt P09581 20-977).
T3 construct: whole, on cells
T3 sequence (looked up): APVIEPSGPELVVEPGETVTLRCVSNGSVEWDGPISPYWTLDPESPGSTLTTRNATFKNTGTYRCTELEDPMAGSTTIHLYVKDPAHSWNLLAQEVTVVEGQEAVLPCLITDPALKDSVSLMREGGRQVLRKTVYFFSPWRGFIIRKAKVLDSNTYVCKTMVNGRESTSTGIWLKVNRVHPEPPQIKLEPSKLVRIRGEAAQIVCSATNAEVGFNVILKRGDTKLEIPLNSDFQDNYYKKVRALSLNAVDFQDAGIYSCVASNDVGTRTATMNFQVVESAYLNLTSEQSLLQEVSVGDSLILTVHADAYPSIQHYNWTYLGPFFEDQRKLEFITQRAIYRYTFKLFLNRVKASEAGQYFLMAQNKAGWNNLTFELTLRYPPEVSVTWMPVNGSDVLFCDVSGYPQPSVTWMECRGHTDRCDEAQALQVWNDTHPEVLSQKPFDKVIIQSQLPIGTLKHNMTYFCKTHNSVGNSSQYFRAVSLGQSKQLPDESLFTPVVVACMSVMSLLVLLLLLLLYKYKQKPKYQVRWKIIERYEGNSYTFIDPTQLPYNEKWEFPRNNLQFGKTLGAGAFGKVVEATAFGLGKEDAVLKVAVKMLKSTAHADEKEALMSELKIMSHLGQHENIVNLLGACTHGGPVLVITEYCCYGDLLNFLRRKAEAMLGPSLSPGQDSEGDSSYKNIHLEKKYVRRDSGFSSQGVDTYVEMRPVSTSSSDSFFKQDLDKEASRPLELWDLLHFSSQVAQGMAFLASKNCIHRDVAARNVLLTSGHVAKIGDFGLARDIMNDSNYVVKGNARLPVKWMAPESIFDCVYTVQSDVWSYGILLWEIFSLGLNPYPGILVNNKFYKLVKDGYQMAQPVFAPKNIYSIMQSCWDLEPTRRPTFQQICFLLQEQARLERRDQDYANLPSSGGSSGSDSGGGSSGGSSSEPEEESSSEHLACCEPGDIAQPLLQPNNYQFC
In words: flow cytometry on HEK293F cells transiently expressing full-length mouse CSF-1R (IRES-EGFP vector), Alexa Fluor 647 anti-human Fc detection [Conti.]. Here is the method: as §1
A general note: Flow cytometry measures light scatter and fluorescence of single cells or particles in a stream.
For the molecule B3, the binding result is listed as “no binding (tested: 100 nM)”.

In the case of B1, the binding result was “no binding (tested: 100 nM)”.

Turning to B9, the binding result was “no binding (tested: 100 nM)”.

With B5, the binding result is “no binding (tested: 100 nM)”.

B8: the binding result is given as “no binding (tested: 100 nM)”.

Another test concerns the target T4, full-length monkey CSF-1R (RefSeq ID XP_015307616) expressed on HEK293F cells (monkey, UniProt A0A2K5WG90 20-976). In words: flow cytometry on HEK293F cells transiently expressing full-length monkey CSF-1R (IRES-EGFP vector), IgG at 100 nM, Alexa Fluor 647 anti-human Fc detection [Conti.]. On the procedure: as §1
Regarding B3, the “percent of cells in the upper right quadrant (APC Ab binding positive, FITC Ag display positive)” value came to 34.2%.

Turning to B1, the “percent of cells in the upper right quadrant (APC Ab binding positive, FITC Ag display positive)” value came to 31.3%.

A further test concerns the target T4, full-length monkey CSF-1R (RefSeq ID …). In words: flow cytometry on HEK293F cells transiently expressing full-length monkey CSF-1R (IRES-EGFP vector), IgG at 100 nM, Alexa Fluor 647 anti-human Fc detection. Here is the method: as §1
Turning to B4, the “percent of cells in the upper right quadrant (APC Ab binding positive, FITC Ag display positive)” value was determined as 32.6%.

For the molecule B6, the “percent of cells in the upper right quadrant (APC Ab binding positive, FITC Ag display positive)” value is 29.5%.

In the case of B7, the “percent of cells in the upper right quadrant (APC Ab binding positive, FITC Ag display positive)” value was 33.7%.

The next test deals with T3, full-length mouse CSF-1R (RefSeq ID …). In words: flow cytometry on HEK293F cells transiently expressing full-length mouse CSF-1R (IRES-EGFP vector), Alexa Fluor 647 anti-human Fc detection. On the procedure: as §1
Turning to B2, the binding result is on record as “no binding (tested: 100 nM)”.

In the case of B4, the binding result was “no binding (tested: 100 nM)”.

As for B6, the binding result is “no binding (tested: 100 nM)”.

For B7, the binding result is recorded as “no binding (tested: 100 nM)”.

The target of a further test is T1, full-length human CSF-1R expressed on …. In words: flow cytometry on HEK293F cells transiently expressing full-length human CSF-1R (IRES-EGFP vector), IgG at 100 nM, Alexa Fluor 647 anti-human Fc detection. On the procedure: as §1
Turning to B2, the “percent of cells in the upper right quadrant (APC Ab binding positive, FITC Ag display positive)” value was 37.4%.

For B4, the “percent of cells in the upper right quadrant (APC Ab binding positive, FITC Ag display positive)” value was found to be 43.8%.

As to B6, the “percent of cells in the upper right quadrant (APC Ab binding positive, FITC Ag display positive)” value came to 40.2%.

B7: the “percent of cells in the upper right quadrant (APC Ab binding positive, FITC Ag display positive)” value was found to be 37.4%.

For another test, the target named is T3, full-length mouse CSF-1R (RefSeq ID …). In words: flow cytometry on HEK293F cells transiently expressing full-length mouse CSF-1R (IRES-EGFP vector), IgG at 100 nM, Alexa Fluor 647 anti-human Fc detection. On the procedure:
as §1
With B2, the “percent of cells in the upper right quadrant (APC Ab binding positive, FITC Ag display positive)” value came out at 0.77%.

In the case of B4, the “percent of cells in the upper right quadrant (APC Ab binding positive, FITC Ag display positive)” value stood at 0.081%.

With B6, the “percent of cells in the upper right quadrant (APC Ab binding positive, FITC Ag display positive)” value amounted to 3.71%.
